# From patent publication US12404345B2, “Humanized antibodies against iRHOM2” (SCIRHOM GMBH, priority 2021, dated 2025)
# T1: human iRhom2 (Homo sapiens, UniProt Q6PJF5)
# T1 construct: MEF-DKO-hiR2-FL-WT-T7 cells stably expressing human iRhom2 full length wild type; expressed in transfected cells; host or cells: immortalized iRhom1/2-/- double knockout mouse embryonic fibroblasts, pMSCV retroviral infection
# T1 sequence (Q6PJF5 1-856): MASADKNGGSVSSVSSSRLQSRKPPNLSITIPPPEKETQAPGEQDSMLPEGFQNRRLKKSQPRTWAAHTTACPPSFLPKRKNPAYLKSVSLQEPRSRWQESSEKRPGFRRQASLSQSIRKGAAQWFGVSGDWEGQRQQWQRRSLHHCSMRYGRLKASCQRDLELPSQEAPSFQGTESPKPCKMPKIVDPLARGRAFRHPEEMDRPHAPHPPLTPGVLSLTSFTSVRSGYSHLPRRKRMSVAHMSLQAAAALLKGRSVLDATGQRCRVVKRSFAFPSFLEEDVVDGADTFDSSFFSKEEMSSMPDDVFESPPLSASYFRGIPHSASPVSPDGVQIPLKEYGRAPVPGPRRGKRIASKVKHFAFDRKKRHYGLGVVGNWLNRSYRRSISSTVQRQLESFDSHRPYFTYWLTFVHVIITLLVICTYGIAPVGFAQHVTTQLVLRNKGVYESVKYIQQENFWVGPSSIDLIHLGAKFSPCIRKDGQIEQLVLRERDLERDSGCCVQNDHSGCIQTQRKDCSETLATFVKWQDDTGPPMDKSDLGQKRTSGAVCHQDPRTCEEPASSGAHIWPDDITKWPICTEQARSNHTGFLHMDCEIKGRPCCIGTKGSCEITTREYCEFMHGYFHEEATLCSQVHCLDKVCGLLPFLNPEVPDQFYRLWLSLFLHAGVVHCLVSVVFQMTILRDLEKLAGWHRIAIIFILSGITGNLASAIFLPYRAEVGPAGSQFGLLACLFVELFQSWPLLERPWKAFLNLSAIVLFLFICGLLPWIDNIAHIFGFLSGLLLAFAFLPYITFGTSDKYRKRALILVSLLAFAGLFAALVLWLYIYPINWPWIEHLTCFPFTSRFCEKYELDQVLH
# Target: T1, human iRhom2
# Test: Affinity determination by indirect FACS scatchard analysis on L929-2041-hiR2-FL-WT-T7 cells
# Assay type: binding
# Settings: 22 two-fold dilutions starting at 160 μg/ml, on ice 1 hour
# Description: In this study, affinity measurements of the humanized antibodies 16-B-03, 16-B-05, 16-B-07, 23-B-04, 42-B-02 and 42-B-04 of the invention were performed by indirect FACS scatchard analysis on […] cells, a murine cell line expressing human iRhom2.
# The resulting L929 mouse iRhom2 knock-out cell line was afterwards infected with different human iRhom2 constructs to obtain cell line derivatives, stably expressing different human iRhom2 proteins, that allow for binding analyses to different iRhom2 variants in the same genetic background.
# In brief, mRhbdf2.3 IVT gRNA ([…]) was synthesized at Thermo Fisher Scientific GeneArt GmbH, Regensburg, Germany. One day post seeding in 24 well plates, L929 parental cells were transfected according to GeneArt CRISPR Nuclease mRNA user guide (Thermo Fisher Scientific, USA) with the gRNA/GeneArt Platinium Cas9 Nucelase (Thermo Fisher Scientific, USA) mix using Lipofectamine CRISPRMAX Transfection Reagent (Thermo Fisher Scientific, USA). 3 days post transfection, cells were lysed and DNA was extracted for amplification of specific PCR products using the mRhbdf2.3 fwd ([…])/mRhbdf2.3 rev ([…]) 5primer pair (Thermo Fisher Scientific, USA). […] Cleavage assay PCR products were also analyzed on Invitrogen 2% E-Gel Size Select agarose gels. Two rounds of subsequent sub cloning of the identified polyclonal L929 population using limited dilution technique were performed, using the Cleavage Detection Kit for identification of positive sub clones. Thereby, the most promising positive sub clone identified in the first round, named 1029, was further sub cloned in the second round to obtain the final clone, named 2041. The monoclonal cell population derived from this sub clone is named L929-2041 and was used for subsequent infection (according to the procedure described in Example 3) with the human iRhom2 construct hiR2-FL-WT-T7 for the generation of the cell lines L929-2041-hiR2-FL-WT-T7.
# In brief, L929-2041-hiR2-FL-T7 were harvested with 10 mM EDTA in PBS, washed and resuspended in FACS buffer (PBS, 3% FBS, 0.05% sodium azide), and seeded in Nunc U-bottom 96-well plates (Thermo Fisher Scientific, USA) at approximately 3×10^5 cells per well. In order to pellet cells and remove supernatants, the plates were centrifuged at 1,500 rpm and 4° C. for 3 minutes. For primary staining, cells were resuspended in 100 μl per well of either FACS buffer alone (controls) or serial two-fold dilutions (in total 22 concentrations) of the humanized antibodies 16-B-03, 16-B-05, 16-B-07, 23-B-04, 42-B-02 and 42-B-04 of the invention in FACS buffer starting at 160 μg/ml and incubated on ice for 1 hour. Afterwards, plates were centrifuged at 1,500 rpm and 4° C. for 3 minutes and washed twice with 200 μl per well of FACS buffer. For secondary staining, cells were spun down and resuspended in 100 μl per well of PE-conjugated goat anti-human IgG F(ab′)2 detection fragment (Dianova, Germany) diluted 1:100 in FACS buffer. Protected from light, the cell suspensions were incubated on ice for 1 hour. Plates were then centrifuged at 1,500 rpm and 4° C. for 3 minutes and washed three times with 200 μl per well of FACS buffer. Finally, cells were resuspended in 150 μl per well of FACS buffer and analyzed using a BD Accuri™ C6 Plus flow cytometer (Becton Dickinson, Germany). Applying Prism8 software (GraphPad Software, USA), the respective KD value for each of the antibodies of the invention were calculated.
row,Molecule,KD values for binding to L929-2041-hiR2-FL-T7 cells
1,"16-B-03: humanized antibody binding human iRhom2; HCVD SEQ ID NO 1, LCVD SEQ ID NO 5 (antibody, V domains shown, antibody sequences) VH: QVTLRESGPALVKPTQTLTLTCTFSGFSLSTFALGVGWIRQPPGKALEWLAHIWWDDDKYYNPALKSRLTISKDTSKNQVVLTITNMDPVDTATYYCARITTYYYGMDYWGQGTLVTVSS VL: EIVMTQSPDFQSVTPKEKVTITCRASQSIGNHLHWYQQKPDASPKLLIKYASQSISGVPSRFSGSGSGTDFTLTINSLEAEDAATYFCQQSYQWPLTFGQGTKLEIK",subnanomolar to low nanomolar range
2,"16-B-07: humanized antibody binding human iRhom2; HCVD SEQ ID NO 17, LCVD SEQ ID NO 21 (antibody, V domains shown, antibody sequences) VH: QVTLRESGPALVKPTQTLTLTCTFSGFSLSTFALGVGWIRQPPGKALEWLAHIWWDEDKYYNPALKSRLTISKDTSKNQVVLTITNMDPVDTATYYCARITTYYYGMDYWGQGTLVTVSS VL: EIVMTQSPDFQSVTPKEKVTITCRASQSIGNHLHWYQQKPDASPKLLIKYASQSISGVPSRFSGSGSGTDFTLTINSLEAEDAATYFCQQSYQWPLTFGQGTKLEIK",subnanomolar to low nanomolar range
3,"16-B-05: humanized antibody binding human iRhom2; HCVD SEQ ID NO 9, LCVD SEQ ID NO 13 (antibody, V domains shown, antibody sequences) VH: QVTLRESGPALVKPTQTLTLTCTFSGFSLSTFALGVGWIRQPPGKALEWLAHIWWDEDKYYNPALKSRLTISKDTSKNQVVLTITNMDPVDTATYYCARITTYYYGMDYWGQGTLVTVSS VL: EIVMTQSPDFQSVTPKEKVTITCRASQSIGNHLHWYQQKPDASPKLLIKYASQSISGVPSRFSGSGSGTDFTLTINSLEAEDAATYFCQQSYNWPLTFGQGTKLEIK",subnanomolar to low nanomolar range
4,"23-B-04: humanized antibody binding human iRhom2; HCVD SEQ ID NO 25, LCVD SEQ ID NO 29 (antibody, V domains shown, antibody sequences) VH: QVTLRESGPALVKPTQTLTLTCTFSGFSLSTFGMGVGWIRQPPGKALEWLAHIWWDDEKYYNSALKSRLTISKDTSKNQVVLTITNMDPVDTATYYCARISNYGSNYWYFNVWGQGTLVTVSS VL: AIQLTQSPSSLSASVGDRVTITCRASSSVSYMYWYQQKPGKAPKVLIYDTSNLASGVPSRFSGSGSGTDYTLTISSLQPEDFATYYCQQWNAYPLTFGQGTKLEIK",subnanomolar to low nanomolar range
5,"42-B-04: humanized antibody binding human iRhom2; HCVD SEQ ID NO 41, LCVD SEQ ID NO 45 (antibody, V domains shown, antibody sequences) VH: QVTLRESGPALVKPTQTLTLTCTFSGFSLSTFGRGVGWIRQPPGKALEWLAHIWWDDEKYYNSALKSRLTISKDTSKNQVVLTITNMDPVDTATYYCARIQNYGSNYWYFDVWGQGTLVTVSS VL: AIQLTQSPSSLSASVGDRVTITCRASSRISYMFWYQQKPGKAPKVLIYDTSNLASGVPSRFSGSGSGTDYTLTISSLQPEDFATYYCQQWNAYPLTFGQGTKLEIK",subnanomolar to low nanomolar range
6,"42-B-02: humanized antibody binding human iRhom2; HCVD SEQ ID NO 33, LCVD SEQ ID NO 37 (antibody, V domains shown, antibody sequences) VH: QVTLRESGPALVKPTQTLTLTCTFSGFSLSTFGRGVGWIRQPPGKALEWLAHIWWDDEKYYNSALKSRLTISKDTSKNQVVLTITNMDPVDTATYYCARIQNYGSNYWYFDVWGQGTLVTVSS VL: AIQLTQSPSSLSASVGDRVTITCRASSRISYMFWYQQKPGKAPKVLIYDTSNLASGVPSRFSGSGSGTDYTLTISSLQPEDFATYYCQQWNSYPLTFGQGTKLEIK",subnanomolar to low nanomolar range
